{
  "source": "patent EP4644549A1",
  "about": "“ANTIMICROBIAL PEPTIDE AND METHOD FOR PRODUCING SAME” (Sumitomo Chemical Company, Limited, priority 2022, dated 2025)",
  "key": {"[1]": {"tested_on": "Lactobacillus sakei (NBRC15893)", "assay": "Wide pH-range stability test (spot-on-lawn antimicrobial activity after incubation in buffer)", "assay_type": "physicochemical", "design": "key: A: Good activity; B: Slight influence on activity; C: No activity", "details": "ten times the lowest concentration of Table 3, A = spot diameter 80% or more of control in water", "experimental": "Antimicrobial activity of the antimicrobial peptide was evaluated by a spot-on-lawn method that involved spotting 10 µL of a test liquid 13 on the test bacteria (lawn) (on a soft agar medium 11) (Fig. 1). As the test bacteria, Lactobacillus sakei (NBRC15893) was used. The specific procedure is as follows. Firstly, the test bacteria that were cultured overnight were mixed and diluted with Lactobacilli AOAC agar (soft agar medium 11) in a density of 4×10^7 CFU/mL, and was spread over an MRS plate containing 2% agar (an agar medium 12). Test liquid 13 was spotted thereon, and incubated overnight at 30°C, followed by evaluation of the size of a growth inhibition circle 14 (Fig. 1). It can be determined that the larger the growth inhibition circle, the higher the antimicrobial activity. The fraction with highest antimicrobial activity as determined in the antimicrobial activity test was regarded as a purified active fraction and used in Experiment 4 and Experiment 5 described below. For the polypeptides as set forth in SEQ ID NOs: 1 to 5, 13, and 14 in Table 3, evaluation was carried out to see if they had antimicrobial activity over a wide range of pH. As a Comparative Example, a commercially available nisin A (manufactured by Sigma-Aldrich) was used. Firstly, each peptide was dissolved in the following buffer to prepare a solution of a concentration ten times the lowest concentration specified in Table 3: sodium phosphate buffer (50 mM, pH4), 1x phosphate buffer saline (pH7.4), ammonium chloride-ammonia buffer (50 mM, pH10.0). […] Antimicrobial activity was evaluated based on the size of the spot (the size of the growth inhibition circle). When the size of the spot was equivalent to that of the control (when the diameter of the spot was 80% or more of the control), it was rated as A, and when the size was relatively small but antimicrobial activity was still detected, it was rated as B. When the growth inhibition circle was not observed, it was rated as C. It can be determined that the peptides rated as A or B are stable at the test pHs. […]"}, "[2]": {"tested_on": "Lactobacillus sakei (NBRC15893)", "assay": "Thermal stability test (spot-on-lawn antimicrobial activity after heat treatment)", "assay_type": "physicochemical", "design": "key: A: Good activity; B: Slight influence on activity; C: No activity", "details": "in water, ten times the lowest concentration of Table 3, A = spot diameter 80% or more of control with no heat treatment", "experimental": "Antimicrobial activity of the antimicrobial peptide was evaluated by a spot-on-lawn method that involved spotting 10 µL of a test liquid 13 on the test bacteria (lawn) (on a soft agar medium 11) (Fig. 1). As the test bacteria, Lactobacillus sakei (NBRC15893) was used. The specific procedure is as follows. Firstly, the test bacteria that were cultured overnight were mixed and diluted with Lactobacilli AOAC agar (soft agar medium 11) in a density of 4×10^7 CFU/mL, and was spread over an MRS plate containing 2% agar (an agar medium 12). Test liquid 13 was spotted thereon, and incubated overnight at 30°C, followed by evaluation of the size of a growth inhibition circle 14 (Fig. 1). It can be determined that the larger the growth inhibition circle, the higher the antimicrobial activity. The fraction with highest antimicrobial activity as determined in the antimicrobial activity test was regarded as a purified active fraction and used in Experiment 4 and Experiment 5 described below. For the polypeptides as set forth in SEQ ID NOs: 1 to 5, 13, and 14 in Table 3, evaluation was carried out to see if they had antimicrobial activity after heat treatment. As a Comparative Example, a commercially available nisin A (manufactured by Sigma-Aldrich) was used. Firstly, each peptide was dissolved in water to prepare a solution of a concentration ten times the lowest concentration specified in Table 3. The test solution thus prepared was subjected to heat treatment at 80°C for 30 minutes, or at 100°C for 30 minutes, or at 121°C for 15 minutes. […] Antimicrobial activity was evaluated based on the size of the spot (the size of the growth inhibition circle); when the size of the spot was equivalent to that of the control (when the diameter of the spot was 80% or more of the control), it was rated as A, and when the size was relatively small but activity was still detected, it was rated as B. When the spot was not observed, it was rated as C. It can be determined that the peptides rated as A or B are stable at the test temperatures. […]"}, "Candida albicans": {"tested_on": "Candida albicans", "assay": "Antimicrobial activity test in liquid culture (growth by OD630)", "assay_type": "cell-based", "design": "key: +: Antimicrobial activity observed; -: No antimicrobial activity observed", "details": "Test conc. 25 µM; culturing 24 to 48 hours", "experimental": "(§1) As a Comparative Example, a commercially available nisin A (manufactured by Sigma-Aldrich) was used. Firstly, each peptide was dissolved in MRS medium to prepare a solution of a concentration of 20 µM to 1000 µM. From the resultant, 10 µl was taken and mixed with various test bacteria and 90 µl of medium intended for culturing the test bacteria, followed by culturing for 24 hours to 48 hours. After culturing, OD630 was measured to check the number of bacteria. When OD630 increased or turbidity was visually observed as compared to the culture liquid before culturing, it can be determined that the test bacteria had grown. […] In the \"SEQ ID NO or substance name of peptide\" section in Table 5, each of \"SEQ ID NO: 3 & SEQ ID NO: 4\" and \"SEQ ID NO: 13 & SEQ ID NO: 14\" means that a combination of the two types of peptides were used in equimolar amounts. The results in Table 5 indicate that the polypeptides as set forth in SEQ ID NOs: 1 to 5, 13, and 14 were effective against gram-positive bacteria and some of these polypeptides were effective against gram-negative bacteria such as E. coli and fungi such as C. albicans."}, "Escherichia coli": {"tested_on": "Escherichia coli", "assay": "Antimicrobial activity test in liquid culture (growth by OD630)", "assay_type": "cell-based", "design": "key: +: Antimicrobial activity observed; -: No antimicrobial activity observed", "details": "Test conc. 25 µM; culturing 24 to 48 hours", "experimental": "as §1"}, "Lactobacillus sakei": {"tested_on": "Lactobacillus sakei", "assay": "Antimicrobial activity test in liquid culture (growth by OD630)", "assay_type": "cell-based", "design": "key: +: Antimicrobial activity observed; -: No antimicrobial activity observed", "details": "Test conc. 25 µM; culturing 24 to 48 hours", "experimental": "as §1"}, "Staphylococcus aureus": {"tested_on": "Staphylococcus aureus", "assay": "Antimicrobial activity test in liquid culture (growth by OD630)", "assay_type": "cell-based", "design": "key: +: Antimicrobial activity observed; -: No antimicrobial activity observed", "details": "Test conc. 25 µM; culturing 24 to 48 hours", "experimental": "as §1"}, "Streptococcus uberis": {"tested_on": "Streptococcus uberis", "assay": "Antimicrobial activity test in liquid culture (growth by OD630)", "assay_type": "cell-based", "design": "key: +: Antimicrobial activity observed; -: No antimicrobial activity observed", "details": "Test conc. 25 µM; culturing 24 to 48 hours", "experimental": "as §1"}},
  "note": "Ends that are not written are not given here.",
  "data": [
    {"substance": "nisin A (ITSISLCTPGCKTGALMGCNMKTATCHCSIHVSK; thioether (positions not given here); not fully specified (some residues, bridges); also: lantibiotic: thioether rings and dehydro residues not placed; UniProt P13068 24-57, looked up) [antimicrobial peptide produced by Lactococcus lactis]", "values": [
      {"measurement": "pH Stability pH7", "setting": "[1]; 1x phosphate buffer saline (pH7.4), 27°C for 24 hours", "result": "C"},
      {"measurement": "pH Stability pH10", "setting": "[1]; ammonium chloride-ammonia buffer 50 mM pH10.0, 27°C for 24 hours", "result": "C"},
      {"measurement": "pH Stability pH4", "setting": "[1]; sodium phosphate buffer 50 mM pH4, 27°C for 24 hours", "result": "A"},
      {"measurement": "Thermostability 80°C", "setting": "[2]; 80°C for 30 minutes", "result": "C"},
      {"measurement": "Thermostability 100°C", "setting": "[2]; 100°C for 30 minutes", "result": "C"},
      {"measurement": "Thermostability 121°C", "setting": "[2]; 121°C for 15 minutes (autoclave)", "result": "C"},
      {"measurement": "Antimicrobial activity, test bacteria Candida albicans", "setting": "Candida albicans", "result": "-"},
      {"measurement": "Antimicrobial activity, test bacteria Escherichia coli", "setting": "Escherichia coli", "result": "-"},
      {"measurement": "Antimicrobial activity, test bacteria Lactobacillus sakei", "setting": "Lactobacillus sakei", "result": "+"},
      {"measurement": "Antimicrobial activity, test bacteria Staphylococcus aureus", "setting": "Staphylococcus aureus", "result": "+"},
      {"measurement": "Antimicrobial activity, test bacteria Streptococcus uberis", "setting": "Streptococcus uberis", "result": "+"}
    ]}
  ]
}
